These are literature values, as cited in article PMC9585055.

As usually defined, the Kd is the equilibrium constant for the complex coming apart.

The target of the data set is cellular prion protein PrPC (Homo sapiens) (UniProt P04156).

Consider “tissue-type plasminogen activator (from UniProt P00750)”, for which the Kd is 2.5 nM.
